Patent US20240000957A1 (published 2024)

Experiments:
Assay in all cases: SPR
Human EphA4 Fc fusion = biological target: T1, Human EphA4 Fc fusion (Human, UniProt P54764 20-547)
T1 construct: SPR; Sino Biologics 11314-H03H

[1] = biological target: T2, Human EphA5, biotinylated (Human, UniProt P54756 25-573, limits assumed, 3.1 mol biotin/monomer)
T2 construct: SPR; R&D Systems 3036-A5

Human EphA6 Fc fusion = biological target: T3, Human EphA6 Fc fusion (Human, UniProt Q9UF33 23-550, limits assumed)
T3 construct: SPR; R&D Systems 5606-A6
T3 sequence (looked up): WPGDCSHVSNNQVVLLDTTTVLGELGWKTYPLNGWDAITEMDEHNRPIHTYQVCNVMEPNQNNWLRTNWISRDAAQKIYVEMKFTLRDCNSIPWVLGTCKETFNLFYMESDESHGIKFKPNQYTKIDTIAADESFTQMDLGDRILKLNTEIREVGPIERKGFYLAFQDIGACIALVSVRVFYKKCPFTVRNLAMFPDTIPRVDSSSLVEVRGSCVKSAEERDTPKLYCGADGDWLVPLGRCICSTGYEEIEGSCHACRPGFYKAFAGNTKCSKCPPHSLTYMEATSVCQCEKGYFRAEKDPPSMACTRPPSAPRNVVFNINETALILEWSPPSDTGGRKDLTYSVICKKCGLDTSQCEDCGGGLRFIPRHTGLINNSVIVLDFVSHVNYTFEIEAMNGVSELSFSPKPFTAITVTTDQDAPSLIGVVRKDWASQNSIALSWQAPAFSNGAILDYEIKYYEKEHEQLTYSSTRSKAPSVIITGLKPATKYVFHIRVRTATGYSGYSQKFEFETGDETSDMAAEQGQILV

Mouse EphA3 Fc fusion = biological target: T4, Mouse EphA3 Fc fusion (Mouse, UniProt P29319 21-540)
T4 construct: SPR; Sino Biologics 51122-M02H
T4 sequence (looked up): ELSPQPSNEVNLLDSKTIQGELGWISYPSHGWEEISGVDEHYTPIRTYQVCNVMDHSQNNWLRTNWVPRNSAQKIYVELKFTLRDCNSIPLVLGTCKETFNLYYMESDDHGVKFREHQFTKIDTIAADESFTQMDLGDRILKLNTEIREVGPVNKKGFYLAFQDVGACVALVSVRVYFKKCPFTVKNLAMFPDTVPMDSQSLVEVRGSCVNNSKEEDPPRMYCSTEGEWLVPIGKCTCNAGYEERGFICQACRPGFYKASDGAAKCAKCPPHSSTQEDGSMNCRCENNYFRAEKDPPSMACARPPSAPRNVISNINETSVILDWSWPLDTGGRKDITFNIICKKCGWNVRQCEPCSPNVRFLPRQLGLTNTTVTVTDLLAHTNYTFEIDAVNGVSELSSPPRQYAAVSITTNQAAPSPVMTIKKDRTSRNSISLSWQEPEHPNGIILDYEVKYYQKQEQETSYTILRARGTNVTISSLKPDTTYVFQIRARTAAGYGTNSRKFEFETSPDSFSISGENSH

Mouse EphA4 Fc fusion = biological target: T5, Mouse EphA4 Fc fusion (Mouse, UniProt Q03137 20-547)
T5 construct: SPR; Sino Biologics 50575-M02H

Rat EphB1 Fc fusion = biological target: T6, Rat EphB1 Fc fusion (Rat, UniProt P09759 18-540, limits assumed)
T6 construct: SPR; R&D Systems 1596-B1
T6 sequence (looked up): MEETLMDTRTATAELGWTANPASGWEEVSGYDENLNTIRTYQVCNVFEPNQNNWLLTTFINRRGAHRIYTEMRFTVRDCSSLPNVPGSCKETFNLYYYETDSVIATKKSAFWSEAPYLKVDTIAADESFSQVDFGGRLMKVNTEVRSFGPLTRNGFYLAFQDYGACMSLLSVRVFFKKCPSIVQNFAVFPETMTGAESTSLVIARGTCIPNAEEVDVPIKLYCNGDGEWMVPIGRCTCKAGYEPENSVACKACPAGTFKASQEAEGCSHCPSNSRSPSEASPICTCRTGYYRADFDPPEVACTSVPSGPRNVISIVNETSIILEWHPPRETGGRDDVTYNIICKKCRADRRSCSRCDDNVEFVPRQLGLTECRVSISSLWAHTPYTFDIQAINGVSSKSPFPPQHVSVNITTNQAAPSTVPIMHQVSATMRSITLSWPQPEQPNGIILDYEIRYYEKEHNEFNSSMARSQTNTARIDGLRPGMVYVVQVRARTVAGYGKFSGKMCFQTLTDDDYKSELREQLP

Human EphA1 Fc fusion = biological target: T7, Human EphA1 Fc fusion (Human, UniProt P21709 26-547)
T7 construct: SPR; Sino Biologics 15789-H02H
T7 sequence (looked up): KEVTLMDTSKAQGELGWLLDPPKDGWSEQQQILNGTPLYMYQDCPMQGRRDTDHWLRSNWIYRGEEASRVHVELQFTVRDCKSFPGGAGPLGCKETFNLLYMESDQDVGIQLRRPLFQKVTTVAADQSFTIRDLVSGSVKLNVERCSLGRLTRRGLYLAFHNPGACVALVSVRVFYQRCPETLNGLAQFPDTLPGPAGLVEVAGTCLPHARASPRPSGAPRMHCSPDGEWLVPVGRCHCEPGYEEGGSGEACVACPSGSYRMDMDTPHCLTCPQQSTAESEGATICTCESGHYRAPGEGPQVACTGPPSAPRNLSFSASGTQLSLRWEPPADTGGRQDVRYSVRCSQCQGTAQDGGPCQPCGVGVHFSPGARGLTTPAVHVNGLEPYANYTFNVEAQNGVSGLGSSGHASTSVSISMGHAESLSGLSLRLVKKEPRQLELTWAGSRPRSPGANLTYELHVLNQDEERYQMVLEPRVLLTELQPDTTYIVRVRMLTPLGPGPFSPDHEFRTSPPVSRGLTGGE

Measured: binding result

T2 sequence (P54756 25-573 limits assumed): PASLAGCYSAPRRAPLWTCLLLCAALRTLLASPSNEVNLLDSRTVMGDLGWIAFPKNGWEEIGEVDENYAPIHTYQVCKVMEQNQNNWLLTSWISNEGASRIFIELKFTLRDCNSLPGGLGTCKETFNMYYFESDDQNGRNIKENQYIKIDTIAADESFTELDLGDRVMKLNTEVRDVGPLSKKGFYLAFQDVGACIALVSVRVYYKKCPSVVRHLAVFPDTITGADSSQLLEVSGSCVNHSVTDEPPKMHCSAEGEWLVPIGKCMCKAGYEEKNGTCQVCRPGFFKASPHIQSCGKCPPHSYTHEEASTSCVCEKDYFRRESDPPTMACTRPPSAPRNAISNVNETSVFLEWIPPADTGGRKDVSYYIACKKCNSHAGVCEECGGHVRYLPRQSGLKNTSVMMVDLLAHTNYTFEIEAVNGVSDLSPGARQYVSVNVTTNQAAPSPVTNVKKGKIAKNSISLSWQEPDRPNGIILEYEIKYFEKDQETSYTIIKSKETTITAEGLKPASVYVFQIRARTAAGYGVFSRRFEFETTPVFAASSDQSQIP
T1 sequence (P54764 20-547 limits assumed): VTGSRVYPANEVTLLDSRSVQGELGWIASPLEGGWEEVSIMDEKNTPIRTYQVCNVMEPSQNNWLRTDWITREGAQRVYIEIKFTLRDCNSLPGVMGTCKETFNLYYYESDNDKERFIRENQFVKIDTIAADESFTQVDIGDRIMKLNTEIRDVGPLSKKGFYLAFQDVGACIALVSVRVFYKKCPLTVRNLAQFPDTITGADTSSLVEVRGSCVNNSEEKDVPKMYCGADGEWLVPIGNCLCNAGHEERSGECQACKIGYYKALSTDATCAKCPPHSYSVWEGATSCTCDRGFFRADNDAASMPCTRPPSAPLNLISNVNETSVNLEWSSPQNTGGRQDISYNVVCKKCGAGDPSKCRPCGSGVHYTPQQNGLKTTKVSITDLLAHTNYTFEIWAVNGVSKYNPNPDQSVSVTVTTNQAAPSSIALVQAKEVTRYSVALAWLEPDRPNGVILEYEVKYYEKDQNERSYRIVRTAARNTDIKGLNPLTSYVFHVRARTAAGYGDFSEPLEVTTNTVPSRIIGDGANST
T5 sequence (Q03137 20-547 limits assumed): as the sequence (P54764 20-547 limits assumed) above, with P59A, N121S, V124G, R250Q, S251N, T270S, K378R, N406S counted along it

B1: BCY6033 (peptide)
peptide: AXDCPLVNPLCLHPGWTC
modifications: not fully specified; as BCY6014 (N-terminal (β-Ala)-Sar10; HArg; TATA scaffold on the 3 Cys) + ValCit-MMAE
notes: Bicycle drug conjugate (BDC)
no binding: all assays above

B2: BCY6082 (peptide)
peptide: AXDCPLVNPLCLHPGWTC
modifications: not fully specified; as BCY6014 (N-terminal (β-Ala)-Sar10; HArg; TATA scaffold on the 3 Cys) + DM1-SS(SO3H)-
notes: Bicycle drug conjugate (BDC)
no binding: all assays above
